These results are taken from paper PMC3659287.

By Kd is commonly meant the free concentration of one partner at which half of the binding sites on the other are occupied at equilibrium, for simple one-to-one binding.

The target of the test is wild-type pneumolysin (PLY) (Streptococcus pneumoniae) (UniProt Q04IN8). The test is described as follows: ELISA. For orientation: ELISA stands for enzyme-linked immunosorbent assay.
Chain of UniProt Q04IN8 (Q04IN8 whole entry): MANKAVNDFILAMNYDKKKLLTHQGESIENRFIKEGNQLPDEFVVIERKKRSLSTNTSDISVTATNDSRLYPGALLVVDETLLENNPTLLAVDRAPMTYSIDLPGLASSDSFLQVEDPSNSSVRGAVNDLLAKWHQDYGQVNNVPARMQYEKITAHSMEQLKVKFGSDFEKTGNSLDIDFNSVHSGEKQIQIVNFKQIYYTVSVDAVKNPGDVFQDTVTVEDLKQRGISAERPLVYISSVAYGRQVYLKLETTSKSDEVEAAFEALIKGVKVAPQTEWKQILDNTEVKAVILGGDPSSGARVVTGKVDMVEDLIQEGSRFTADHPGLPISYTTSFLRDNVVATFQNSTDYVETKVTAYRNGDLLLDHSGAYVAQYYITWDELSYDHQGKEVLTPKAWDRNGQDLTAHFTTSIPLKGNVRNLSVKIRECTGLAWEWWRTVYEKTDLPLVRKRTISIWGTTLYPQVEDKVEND

For “G-actin (non-muscle actin isolated from human platelets) (from UniProt P60709 1-375) (natural protein)”, the Kd fell in the range of 170 to 190 nM.
